# Measured values taken from patent US20030103975A1.
# Biological target: α4 laminin fragment G^919-1207 (SEQ ID NO:13) (human), Q16363
# Experiment: solid-phase saturation binding ELISA: coated G^919-1207 at varying concentrations, soluble integrin at 5 ng/µl, detected with LM609
# Sequence of α4 laminin fragment G^919-1207 (SEQ ID NO:13) (human), Q16363 (Q16363 926-1214 G1117S/P1119X limits assumed): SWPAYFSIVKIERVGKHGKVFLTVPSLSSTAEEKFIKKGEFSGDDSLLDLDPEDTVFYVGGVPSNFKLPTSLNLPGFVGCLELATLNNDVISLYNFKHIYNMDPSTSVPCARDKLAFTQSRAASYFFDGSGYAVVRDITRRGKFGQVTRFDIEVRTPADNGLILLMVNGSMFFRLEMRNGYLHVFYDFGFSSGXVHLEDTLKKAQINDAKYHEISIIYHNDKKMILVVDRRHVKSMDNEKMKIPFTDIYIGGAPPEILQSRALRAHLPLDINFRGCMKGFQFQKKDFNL
binder,measurement,value
"soluble αvβ3 integrin heterodimer (Chemicon International), P06756 31-992; P05106 27-718 (receptor) chain 1: FNLDVDSPAEYSGPEGSYFGFAVDFFVPSASSRMFLLVGAPKANTTQPGIVEGGQVLKCDWSSTRRCQPIEFDATGNRDYAKDDPLEFKSHQWFGASVRSKQDKILACAPLYHWRTEMKQEREPVGTCFLQDGTKTVEYAPCRSQDIDADGQGFCQGGFSIDFTKADRVLLGGPGSFYWQGQLISDQVAEIVSKYDPNVYSIKYNNQLATRTAQAIFDDSYLGYSVAVGDFNGDGIDDFVSGVPRAARTLGMVYIYDGKNMSSLYNFTGEQMAAYFGFSVAATDINGDDYADVFIGAPLFMDRGSDGKLQEVGQVSVSLQRASGDFQTTKLNGFEVFARFGSAIAPLGDLDQDGFNDIAIAAPYGGEDKKGIVYIFNGRSTGLNAVPSQILEGQWAARSMPPSFGYSMKGATDIDKNGYPDLIVGAFGVDRAILYRARPVITVNAGLEVYPSILNQDNKTCSLPGTALKVSCFNVRFCLKADGKGVLPRKLNFQVELLLDKLKQKGAIRRALFLYSRSPSHSKNMTISRGGLMQCEELIAYLRDESEFRDKLTPITIFMEYRLDYRTAADTTGLQPILNQFTPANISRQAHILLDCGEDNVCKPKLEVSVDSDQKKIYIGDDNPLTLIVKAQNQGEGAYEAELIVSIPLQADFIGVVRNNEALARLSCAFKTENQTRQVVCDLGNPMKAGTQLLAGLRFSVHQQSEMDTSVKFDLQIQSSNLFDKVSPVVSHKVDLAVLAAVEIRGVSSPDHVFLPIPNWEHKENPETEEDVGPVVQHIYELRNNGPSSFSKAMLHLQWPYKYNNNTLLYILHYDIDGPMNCTSDMEINPLRIKISSLQTTEKNDTVAGQGERDHLITKRDLALSEGDIHTLGCGVAQCLKIVCQVGRLDRGKSAILYVKSLLWTETFMNKENQNHSYSLKSSASFNVIEFPYKNLPIEDITNSTLVTTNVTWGIQPAPMPV chain 2: GPNICTTRGVSSCQQCLAVSPMCAWCSDEALPLGSPRCDLKENLLKDNCAPESIEFPVSEARVLEDRPLSDKGSGDSSQVTQVSPQRIALRLRPDDSKNFSIQVRQVEDYPVDIYYLMDLSYSMKDDLWSIQNLGTKLATQMRKLTSNLRIGFGAFVDKPVSPYMYISPPEALENPCYDMKTTCLPMFGYKHVLTLTDQVTRFNEEVKKQSVSRNRDAPEGGFDAIMQATVCDEKIGWRNDASHLLVFTTDAKTHIALDGRLAGIVQPNDGQCHVGSDNHYSASTTMDYPSLGLMTEKLSQKNINLIFAVTENVVNLYQNYSELIPGTTVGVLSMDSSNVLQLIVDAYGKIRSKVELEVRDLPEELSLSFNATCLNNEVIPGLKSCMGLKIGDTVSFSIEAKVRGCPQEKEKSFTIKPVGFKDSLIVQVTFDCDCACQAQAEPNSHRCNNGNGTFECGVCRCGPGWLGSQCECSEEDYRPSQQDECSPREGQPVCSQRGECLCGQCVCHSSDFGKITGKYCECDDFSCVRYKGEMCSGHGQCSCGDCLCDSDWTGYYCNCTTRTDTCMSSNGLLCSGRGKCECGSCVCIQPGSYGDTCEKCPTCPDACTFKKECVECKKFDRGALHDENTCNRYCRDEIESVKELKDTGKDAVNCTYKNEDDCVVRFQYYEDSSGKSILYVVEEPECPKGPD",Kd,4 nM
